Data as given in patent US20230405078A1, “DETECTION AND TREATMENT OF INTESTINAL FIBROSIS” (THE REGENTS OF THE UNIVERSITY OF CALIFORNIA, priority 2020, published 2023).

How the values were obtained:
[1] = test system: Human colonic CCD-18Co fibroblasts; assay: TGF-β1-induced fibrogenesis in CCD-18Co fibroblasts; format: cell-based; conditions: TGF-β1-treated CCD-18Co fibroblasts; elafin 1 μg/ml
Experimental: Cleveland Clinic IRB directives (IRB #17-1167). Primary non-IBD patient-derived colonic fibroblasts (H6231) were purchased from Cell Biologics. All primary colonic fibroblasts were cultured in fibroblast medium (M2267, Cell Biologics). Human colonic CCD-18Co fibroblasts (ATCC) were cultured in minimal essential medium Eagle's medium (MEM) containing 10% fetal bovine serum and 1% penicillin-streptomycin 6, 20. All fibroblasts were grown to 80% confluence and then switched to serum-free media overnight for experiments.
For activation of protease-activated receptors (PARs), fibroblasts were pretreated with 0.8% DMSO, 10 μM PAR1 agonist TRAP-6 (HY-P0078, MCE), 10 μM PAR2 agonist SLIGKV-NH2 (Protease-Activated Receptor-2, amide, HY-P0283, MCE), or 0.4 μg/ml PAR2-activating protease recombinant cathepsin S (1183-CY-010, R&D Systems) for 30 minutes. For miR205-5p activation, fibroblasts were transfected with (30 picomoles/well) either control (YM00479902) or miR205-5p miRCURY LNA mimic (YM00472340) from Qiagen via Lipofectamine 3000 transfection reagent (L3000001, ThermoFisher) in Opti-MEM (#31985062, ThermoFisher) overnight. For miR205-5p inhibition, fibroblasts were pretreated with 50nM either control (Y100199006) or miR205-5p power inhibitors (Y104101508-DDA) from Qiagen overnight. […]

ERK1/2 phosphorylation = assay: Phospho-ERK1/2 ELISA in CCD-18Co fibroblasts; format: cell-based, human; conditions: elafin 1 μg/ml, 2 hours
Experimental: FIG. 27. Elafin inhibited ERK1/2 phosphorylation in intestinal fibroblasts via PAR2. (A) Serum starved CCD-18Co and primary stricturing CD patient-derived colonic fibroblasts were transiently transfected with either control siRNA or ZEB1 siRNA overnight, followed by treatment with 10 ng/ml TGF-β1 or 100 μg/ml stricturing CD patient-derived serum exosomes (CDSE) for 24 hours. (B) CCD-18Co fibroblasts were treated with DMSO, PAR1 inhibitor (SCH79797), or PAR2 inhibitor (GB88) for 2 hours. GB88 inhibited ERK1/2 phosphorylation. (C) CCD-18Co fibroblasts were pretreated with DMSO, PAR1 agonist, or PAR2 agonists for 30 minutes, followed by TGF-β1 10 ng/ml. Two hours later, elafin (1 μg/ml) and incubated for 2 hours. Elafin inhibited ERK1/2 phosphorylation, which was reversed by PAR2 agonist. […] Phospho-ERK1/2, ProCOL1A1, COL1A2, and ZEB1 protein were determined by ELISA. miR205-5p expression was determined by real-time RT-PCR. […]
FIG. 28. […] (D) Quantification of cathepsin S signals (B7-8) and control signals (A1-2 and E1-2) on the protease array using Bio-Rad Image Lab Software. […] Phospho-ERK1/2 was determined by ELISA. […] ProCOL1A1 and COL1A2 were determined by ELISA. […]

B1: Cathepsin S: PAR2-activating protease recombinant cathepsin S (protein)
chain: QLHKDPTLDHHWHLWKKTYGKQYKEKNEEAVRRLIWEKNLKFVMLHNLEHSMGMHSYDLGMNHLGDMTSEEVMSLMSSLRVPSQWQRNITYKSNPNRILPDSVDWREKGCVTEVKYQGSCGACWAFSAVGALEAQLKLKTGKLVSLSAQNLVDCSTEKYGNKGCNGGFMTTAFQYIIDNKGIDSDASYPYKAMDQKCQYDSKYRAATCSKYTELPYGREDVLKEAVANKGPVSVGVDARHPSFFLYRSGVYYEPSCTQNVNHGVLVVGYGDLNGKEYWLVKNSWGHNFGEEGYIRMARNKGNHCGIASFPSYPEI
For B1, the “effect on elafin-mediated inhibition of collagen expression” value [1] was “reversed” and the “effect on elafin-mediated inhibition of ERK1/2 phosphorylation” value (ERK1/2 phosphorylation) was “reversed”.
